The source of these data is publication PMC6647829, “Copper–zinc superoxide dismutase (Sod1) activation terminates interaction between its copper chaperone (Ccs) and the cytosolic metal-binding domain of the copper importer Ctr1” (Biometals, 2019).

Conditions in all cases: both partners purified
Assay [1] concerns the target T1, Human wild-type copper chaperone for Sod1 (Ccs), His8-tag removed (human, UniProt O14618 1-274).
T1 construct: Human wild-type Ccs1, UniProtKB O14618, cloned into pAG8H; Stripped of metals (apo) or Cu(I)-loaded as the experiment says; the methods tell its removal in general; also called Ccs1; WT Ccs; not shown: His8, N-terminal, cleaved
T1 sequence (looked up): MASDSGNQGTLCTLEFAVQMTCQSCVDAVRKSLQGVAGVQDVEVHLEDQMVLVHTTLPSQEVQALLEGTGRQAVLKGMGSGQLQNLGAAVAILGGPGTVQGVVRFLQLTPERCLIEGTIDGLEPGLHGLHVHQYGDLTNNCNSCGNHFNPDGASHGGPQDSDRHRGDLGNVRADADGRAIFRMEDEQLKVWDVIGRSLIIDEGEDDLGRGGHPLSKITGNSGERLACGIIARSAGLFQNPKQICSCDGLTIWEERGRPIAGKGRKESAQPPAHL
The assay can be described thus: other fluorescence titration; HI-FI method, fluorescence quenching; 10 nM Alexa-546 Sod1 probe, Zn-bound; apo-Ccs titrated in increasing concentrations; fit in GraphPad Prism.

The target of assay [2] is T2, Pre-made Cu(I)-Ctr1c·Ccs complex (human, UniProt O14618 1-274).
T2 construct: Human wild-type Ccs1, UniProtKB O14618; as m2; C-terminal 13 amino acids of the human Ctr1 Cu(I)-transporter (Ctr1c), UniProtKB O15431; Held together through Cu(I); also called Cu(I)-Ctr1c complexed Ccs; Cu(I)-Ctr1c488·Ccs; source: formed from purified E. coli Ccs and the Cu(I)-loaded synthetic peptide; not shown: His8, N-terminal, cleaved
The assay can be described thus: other fluorescence titration; HI-FI method, fluorescence quenching; 10 nM Alexa-546 Sod1 probe, completely immature (metal-free); Ccs titrated in increasing concentrations; fit in GraphPad Prism.

The target in assay [3] is T1, Human wild-type copper chaperone for …. Described as above.

B1: H46R/H48Q/C146S Sod1 labelled with Alexa-546-C-maleimide (Sod1 probe) (enzyme)
chain: not shown
modifications: Alexa-546-C-maleimide label (residue not stated)
notes: Human Sod1, UniProtKB P00441, H46R/H48Q/C146S; the two states are told apart by the assay; also called completely immature Sod1; source: gel filtration after labelling
What is called Kd is the free concentration of one partner at which half of the binding sites on the other are occupied at equilibrium, for simple one-to-one binding. Higher therefore signals lower affinity. Turning to B1, the equilibrium dissociation constant (Kd) in assay [1] is 22 ± 6 nM; in assay [2], 120 ± 27 nM; in assay [3] it was 89 ± 11 nM.
